Reference: the supplement of paper PMC11502859

System: HEK293T
Test: median enrichment of reporter reads in eGFP-reduced (low/intermediate) vs eGFP-high sorted cells (eGFP-extension fusion abundance) (ratio); higher = stronger loss of eGFP-fusion protein abundance (more destabilising extension)
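Further: lentiviral eGFP-IRES-mCherry reporter pool sorted by FACS 96 h post-transduction, gated on mCherry-high cells, Illumina read counts normalized per million, median across four biological replicates.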

MMM [Met03] gave a median enrichment of 0.831.
MMMM [Met04] was tested, and the median enrichment was 1.4.
Substance MMMMM [Met05] has a median enrichment of 5.18.
MMMMMMM [Met07] showed a median enrichment of 6.53.
For MMMMMMMM [Met08], the median enrichment was 8.55.
For MMMMMMMMM [Met09], the median enrichment was 8.27.
In the case of MMMMMMMMMM [Met10], the median enrichment was 10.8.
Work on “NGPPLPPSPDAEMVMGSWRVGSEMKGTPQWAAGPIFPKPCHYLCEGGQVAEGSGCRLLYPLCLKHPPHRALVFTRFVLDSLNG [SLC13A5]” yielded a median enrichment of 4.2.
For “NLYSLESMSCVYSTIRNLILFLLLFLQKQKLILKSIIMGWGGGCPQDMQDFCRGQHRFWDCEAVSEGGQAVWMAGLMLFRIKC [SETD4]”, the median enrichment was 13.5.
Substance NNN [Asn03] has a median enrichment of 0.227.
With NNNN [Asn04] the median enrichment was 0.299.
With NNNNN [Asn05] the median enrichment was 0.217.
NNNNNN [Asn06] was tested, and the median enrichment was 0.37.
For NNNNNNN [Asn07], the median enrichment was 0.297.
Substance NNNNNNNN [Asn08] has a median enrichment of 0.184.
Work on NNNNNNNNN [Asn09] yielded a median enrichment of 0.367.
With NNNNNNNNNN [Asn10] the median enrichment was 0.3.
With NRRRRWRERQR [Degron FEM1C] the median enrichment was 21.1.
“PARVSGPRSIENTTTMARWKGLLVPASSCPPWCRWPGQPTGLGTGQAGPGRGLSLGGNKSRPTRRCCSGSRCRCRDKSAAVSG [MLST8]” gave a median enrichment of 9.
Work on “PCRHHPPPSPCPQPVCPVPCPPQAWWWQWRRLRRLKRLTGRGAFCLAHCPDDPPAPSRLQQQSPRRTGWTEEKEVDCCTHTER [SOX10]” yielded a median enrichment of 3.84.
In the case of “PEPGWGISAGQRRRLSQLFPDIQGHCSLLPSRTSLLPPTMAGGEQVSQKHPVPRMVLCACPSLLGLPFPLLREDVSLLTCTLA [KIRREL1]”, the median enrichment was 4.27.
“PGCLPCLPRPALVAPTALTVNPEAGSPANLWAESGESWWMRLRRRQEHLETGASWTGTLPLPGHRSSGGSNLRLNTRHPCSQK [TMEM91]” gave a median enrichment of 3.37.
“PGLTALRSARRARAETRVGCGELKEPIKSCSSTQNEPCSRHLPMLRDAWSVLGARPGAAACPTPPEEADPDRYLTTFFFFFFF [UQCC3]” was tested, and the median enrichment was 5.28.
“PHAQSPPIPHAAPPQSQATSCLLLVGGGLLSPSSLTFNLTLTLHRAPTLHPSWKAGLMASHWPPPPDQSVLFRGLAPFPVSLK [LGALS9]” showed a median enrichment of 5.55.
Work on “PKWNHLTSAAPDLPGRMPLPLPSSNPQTRTPFLPPQAGPAPGVGSALSTPRAPRPSEGAPAGASDTLQFRAVGGLGHIPVPWL [SECTM1]” yielded a median enrichment of 1.79.
Substance “PLAPALPTSSAWSEGAARAQQRRGGRLWPPTSRPVPAGTASPSAGRGSAPRKCLLCPGAERRCLLGAGLPPCGSCAPWPGPCP [ARHGAP39]” has a median enrichment of 1.98.
“PLLNLDFCPNPLPVTRSISLSLLSNGAWSTEASEAIALLAEVKRTLSPHLRLPCVEPASVCPSFHCSQCQTWAAAPRRLRPNQ [SLC18A3]” showed a median enrichment of 5.19.
PPP [Pro03] was tested, and the median enrichment was 0.305.
With PPPP [Pro04] the median enrichment was 0.659.
Substance PPPPP [Pro05] has a median enrichment of 0.529.
Substance PPPPPP [Pro06] has a median enrichment of 0.323.
PPPPPPP [Pro07] was tested, and the median enrichment was 1.37.
PPPPPPPP [Pro08] was tested, and the median enrichment was 1.83.
PPPPPPPPP [Pro09] showed a median enrichment of 3.45.
“PPTTPHQATPAASAFLGAERQPRPPVPSPPSHHRSSAPGRTVWPLPVPAMGSGWTPWAPPIAKPGRQLSLVPASGQPRVSPAS [CAPN1]” gave a median enrichment of 6.04.
Work on “PTASSLQVQLKPLSSGGRHVERAGRPTAAENRAGTGSSCSAFPSFGDAGSAAPKHLPAPHSTVSEDSSLLPVKLPCAGMAWTC [CDC14B]” yielded a median enrichment of 2.89.
“PTVRPQRGQDKPCPDAFDRQLCVLVDRCRNKEEMESAPEKLQIQARREVLRKDLQQLHIHINQHNTGWRPNSGVHKRRRDVVG [H6PD]” showed a median enrichment of 5.25.
“PVGKGGGLRGRGWMPRAPKPPFPFVSKGVRSELRKRASECVSLEGLGALWCYHLETCLMPPCLPMEDRLQELGPCGNLACFGG [MTA2]” gave a median enrichment of 6.97.
Substance “PWPHQWHRGAPATGWPSGQPEHQGHCQPAAEAGEQDRDRPQRALPGQPSGFLRDGGRAGGRWRGMVDVPKRCQRAAGFRILLC [DECR2]” has a median enrichment of 3.51.
Work on “PWTWYTSMWSCWARGVLCAVNSVGSCSGVGARFLPPWAEGPFPLVLCPHPPPFSCSWASALPRASQVLLGREGNGEKGEASSV [KLHDC3]” yielded a median enrichment of 6.21.
In the case of “QAASWRFEDAAFGLDEFQILLACFLILICLYTYTLCTKLFLIHGLLNPQMWSPWIRKARCTLNDK [B2M]”, the median enrichment was 11.1.
Work on QAAVAPGDVCFIVPFFLLV [CCNB2] yielded a median enrichment of 8.22.
Work on QACPAVNLHLEP [SEC16A] yielded a median enrichment of 0.624.
QALGKKDCNQRKSIGVEEIKLTLFWLFF [GLI3] showed a median enrichment of 25.8.
Substance QALSIPM [IDH3B] has a median enrichment of 0.815.
In the case of QAMPRPRT [CREB3L1], the median enrichment was 0.317.
Substance “QAPTLLLLALLPASVQRTGRYWWEALCLAPQLPVWASKHNGPSRSLVETGVVVPNLPSALPLHRTQRPQALQGVLVPAFPRTS [AMIGO3]” has a median enrichment of 1.8.
In the case of QAR [MMP10], the median enrichment was 0.457.
For QATPAWPRSQDTGQGRPGPEELGAGPQT [APBA2], the median enrichment was 0.312.
QAVFNLLLNWVFLALILIINHNL [FAM47A] showed a median enrichment of 5.56.
QAVNSTFKVI [LMNTD1] showed a median enrichment of 0.803.
In the case of QCDSQCNNIKISFYIII [ASNSD1], the median enrichment was 4.36.
“QCGSCDRGSSSAEPQTVLPCSMCLKAQGDIPLGWPLPPP [DIAPH1]” showed a median enrichment of 1.17.
QCHLLSPTTP [PPY] showed a median enrichment of 0.404.
Work on QCITECGHQPRAAW [FOXJ2] yielded a median enrichment of 0.515.
For QCL [ADGRG6], the median enrichment was 0.557.
QCLCRIKCLLFYMHILKEKQRPEPRRG [RIOX2] gave a median enrichment of 4.27.
With QCLPERVVRWCHVGEQVSFRTQRRPPFCK [ACTR3B] the median enrichment was 5.17.
Substance “QCLWPSILISLMRILLALLSLVGICQAQCFNLKLILCFRCQSRYQQPFDPTTALYILVEDFHPCAWKRCSWYIVKK [TCEAL3]” has a median enrichment of 10.4.
QCMSLV [CCDC6] gave a median enrichment of 0.689.
QCPN [LRRC3B] gave a median enrichment of 0.337.
QCR [CCDC73] gave a median enrichment of 0.362.
QCVSRCQ [SPG21] was tested, and the median enrichment was 0.894.
QCYLVSF [TRMT10A] was tested, and the median enrichment was 4.82.
With “QDFMHSSERVTVTTVLSPISHKLLFVSKRMLLLLHCFPFAGTCWCLLLNWPALLAVWHCSLGRLLCSLYLHYRLVNLPTSSL [DCUN1D4]” the median enrichment was 6.12.
Work on QDFRSICKCLFFIIALYIVCYLTR [DDX5] yielded a median enrichment of 10.2.
Work on QDGWGWR [SCPEP1] yielded a median enrichment of 0.778.
Work on QDLSIF [KCNJ13] yielded a median enrichment of 0.364.
In the case of QDPVVLFESLRP [HAVCR1], the median enrichment was 0.393.
For “QDSQLHRRLLPGLLLGRPPACPPCVSTPPARLPAGPSTPCVHTTSNLIGADVFIFLEFLFML [DDA1]”, the median enrichment was 7.88.
QDTERRTYSRNGLVQSQSPPL [CFAP157] gave a median enrichment of 0.332.
“QDTVNSSSKILACKHPLKFKRGKIKYNEF [ANKRD30BL]” gave a median enrichment of 1.66.
In the case of QEATDRVSLVIRSQRFTI [ITM2A], the median enrichment was 15.6.
QEDFKVNFPSLFLN [CSN2] showed a median enrichment of 0.654.
Work on QEGPGGPAVLSPAPLGGVW [GALNT2] yielded a median enrichment of 0.738.
QEGQDLYSRLVQQRLMD [TAP2] showed a median enrichment of 0.376.
Substance “QEHPHDIAFGGAPVACRIACGLCNLLRFKTDGHMCQWGSLSPGPKKQGTKFKTLASSQPLKPWPPEFPFLSLSFYFFYFYFYF [JAK3]” has a median enrichment of 7.54.
For “QEITRWHQPRALARYGEGTWGPHLPPGLFREDPTVTPPSAVGAWRWAAGLNPPWGAPFLLPICVYIHK [MEF2B]”, the median enrichment was 5.36.
With QEKAIWDLITLNRHANTVCVRALCIQ [PCDH9] the median enrichment was 6.25.
QELARQLPLLHPQ [TECTB] showed a median enrichment of 0.3.
In the case of QELSERCSIPFPHGKAK [ASXL3], the median enrichment was 0.227.
Substance QELTQQKRTASIPHAFTHQIILKNSDPQVF [TOR3A] has a median enrichment of 13.3.
Substance QELVGSLRTPVLLTPSF [TSNAXIP1] has a median enrichment of 2.24.
“QEMWSLRCLKSTTMPGIEEDYYLKQWALVFGASDMPSILPSWN [G6PC]” was tested, and the median enrichment was 10.6.
QENKNCRK [MRPL13] showed a median enrichment of 0.366.
QEPHALKKTWEDMVAWNCHPRIPC [ZIM3] showed a median enrichment of 3.53.
“QESKSTLPSHHHGPTGYPEQLHTLLEVSRSLPA [ADAMTSL1]” showed a median enrichment of 2.98.
“QESSPPAHQGQDTWLGADAGPDVAEDSRAGRARGGGGGGGGGRRRRSRPLPTTSRRRRGARAEEPGTGDS [C6orf223]” was tested, and the median enrichment was 0.3.
For “QESSSRGTEDWGQEESGTQPSCPLTPGRPSPHPRVPQSYPLSACVARPDKHLQMAAAPTWDLPRRLEQKGLSLGWCFSSRVLG [TMEM141]”, the median enrichment was 3.62.
In the case of QEWKSGSSRYSFMLCSCEQSTKFE [LMLN], the median enrichment was 7.78.
Substance QFCPPVTPVSGTRNPQHALMLCF [DNMT1] has a median enrichment of 4.79.
Substance QFDNKAEGLSSNMVAFF [ACSM4] has a median enrichment of 0.317.
QFKELKIHMHEP [WDR41] showed a median enrichment of 1.3.
QFLC [BEST3] was tested, and the median enrichment was 0.953.
Substance QFLGLFEYSIPMGIYFLSCH [HHIP] has a median enrichment of 13.7.
In the case of QFLQDTVPLPFFDQLSLVASSLHKM [FCF1], the median enrichment was 14.2.
QFPTSELGNCTHSNPACSAS [MAS1L] gave a median enrichment of 0.296.
In the case of “QGAGPWMVPVCLALGMAVEGTWQKQPHVLPCPRPGVDKTRGVFWSPPAELEASHCNFSAQGLLNRCERPVPRVSL [SLC6A13]”, the median enrichment was 14.4.
QGDL [DPYD] was tested, and the median enrichment was 0.394.
With QGGDF [KIF16B] the median enrichment was 0.225.
Substance QGHACAPMGFLFSFFFFLVGGVGGLD [PRKACA] has a median enrichment of 5.49.
QGIQGTAL [CXorf26] gave a median enrichment of 0.941.
“QGLEGQEVGVRSPYSACCPGCAAQLDSASQHLPPRSFLLFIPIFTPKTSLSLFTPPKPLSHAGPLKPQLPTILREHPLPSLPF [GSTM2]” showed a median enrichment of 5.62.
Substance QGLQKNWPWGTKAFFSGLLPRP [KANK4] has a median enrichment of 4.85.
QGNPRSNQGGGS [POLA1] showed a median enrichment of 0.576.
For “QGNWALPHVFLLPPRDSNDMYSHLGHACLPNTIWSWTTFDTNQSYWTRPLEDLKYTSHAVVYLGCDSLSNAALGKDESDLQGE [APOBEC2]”, the median enrichment was 6.1.
Work on “QGPAPRTDSTRKPNDVPARRPRRAAFPLVLEKLEHPVTALFAMGTGTLFYTMLPPSPP [CARM1]” yielded a median enrichment of 3.47.
“QGPGLRREALSQRLPHPSPLAFNSVASCSPAAEPPRIRLHVTLKLTNFHGPH [FYN]” showed a median enrichment of 20.4.
“QGPPNLIAGHSQPSESESRFLLSLPSSPLETQLLSQVRQWAGSCFISLSLSIPLCLVSLPLVSAWQPPPPTYHPSPITQVNVT [PGLYRP4]” was tested, and the median enrichment was 3.73.
“QGQVICSLSAFTPFNSLTPCQTYLSGTSSPDTFQRREKK [CREBZF]” gave a median enrichment of 4.04.
QGSYGIPPRSARA [CDKN2A] was tested, and the median enrichment was 5.31.
